Assay results from patent publication US20240058467A1 (SUTRO BIOPHARMA, published 2024).

B1: Conjugate 4 (2188-D04-Y180/F404/K42/E161-LP1) (antibody, human IgG1, kappa)
heavy: MEVQLVESGGGLVQPGGSLRLSCAASGFNISDYDIHWVRQAPGKGLEWVGGIDPADGSTDYADSVKGRFTISADTSKNTAYLQMNSLRAEDTAVYYCARDYGVYDYWGQGTLVTVSSASTKGPSVFPLAPSSKSTSGGTAALGCLVKDYFPEPVTVSWNSGALTSGVHTFPAVLQSSGLSLSSVVTVPSSSLGTQTYICNVNHKPSNTKVDKKVEPKSCDKTHTCPPCPAPELLGGPSVFLFPPKPKDTLMISRTPEVTCVVVDVSHEDPEVKFNWYVDGVEVHNAKTKPREEQYNSTYRVVSVLTVLHQDWLNGKEYKCKVSNKALPAPIEKTISKAKGQPREPQVYTLPPSREEMTKNQVSLTCLVKGFYPSDIAVEWESNGQPENNYKTTPPVLDSDGSFLYSKLTVDKSRWQQGNVFSCSVMHEALHNHYTQKSLSLSPGK
light: MDIQMTQSPSSLSASVGDRVTITCRASQDVNTAVAWYQQKPGAPKLLIYSASFLYSGVPSRFSGSRSGTDFTLTISSLQPEDFATYYCQQHYTTPPTFGQGTKVEIKRTVAAPSVFIFPPSDEQLKSGTASVVCLLNNFYPREAKVQWKVDNALQSGNSQSVTEQDSKDSTYSLSSTLTLSKADYEKHKVYACEVTHQGLSSPVTKSFNRGEC
modifications: pAMF in place of K42 and E161, printed '*', conjugated to LP1; pAMF in place of Y180 and F404 (EU), printed '*', conjugated to LP1
B2: Conjugate 7 (2188-D04-Y180/F404/K42/E161-LP10) (antibody, human IgG1, kappa)
heavy: B1 heavy
light: B1 light
modifications: pAMF in place of K42 and E161, printed '*', conjugated to LP10; pAMF in place of Y180 and F404 (EU), printed '*', conjugated to LP10
B3: Conjugate 10: D04-Y180/F404/K42/E161-LP4 (antibody, human IgG1, kappa)
heavy: B1 heavy
light: B1 light
modifications: pAMF at K42 and E161 (printed * in the sequence), linked to LP4; pAMF at Y180 and F404 (printed * in the sequence), linked to LP4
B4: Conjugate 15: D04-Y180/F404/K42/E161-LP13 (antibody, human IgG1, kappa)
heavy: B1 heavy
light: B1 light
modifications: pAMF at K42 and E161 (printed * in the sequence), linked to LP13; pAMF at Y180 and F404 (printed * in the sequence), linked to LP13
B5: Conjugate 4: D04-Y180/F404/K42/E161-LP1 (antibody, human IgG1, kappa)
heavy: B1 heavy
light: B1 light
modifications: pAMF at K42 and E161 (printed * in the sequence), linked to LP1; pAMF at Y180 and F404 (printed * in the sequence), linked to LP1
B6: Conjugate 8: D04-Y180/F404/K42/E161-LP2 (antibody, human IgG1, kappa)
heavy: B1 heavy
light: B1 light
modifications: pAMF at K42 and E161 (printed * in the sequence), linked to LP2; pAMF at Y180 and F404 (printed * in the sequence), linked to LP2
B7: Conjugate 13: D04-Y180/F404/K42/E161-LP6 (antibody, human IgG1, kappa)
heavy: B1 heavy
light: B1 light
modifications: pAMF at K42 and E161 (printed * in the sequence), linked to LP6; pAMF at Y180 and F404 (printed * in the sequence), linked to LP6
B8: Conjugate 9: D04-Y180/F404/K42/E161-LP3 (antibody, human IgG1, kappa)
heavy: B1 heavy
light: B1 light
modifications: pAMF at K42 and E161 (printed * in the sequence), linked to LP3; pAMF at Y180 and F404 (printed * in the sequence), linked to LP3
B9: Conjugate 11: D04-Y180/F404/K42/E161-LP7 (antibody, human IgG1, kappa)
heavy: B1 heavy
light: B1 light
modifications: pAMF at K42 and E161 (printed * in the sequence), linked to LP7; pAMF at Y180 and F404 (printed * in the sequence), linked to LP7
B10: Conjugate 16: D04-Y180/F404/K42/E161-LP34 (antibody, human IgG1, kappa)
heavy: B1 heavy
light: B1 light
modifications: pAMF at K42 and E161 (printed * in the sequence), linked to LP34; pAMF at Y180 and F404 (printed * in the sequence), linked to LP34
B11: Conjugate 12: D04-Y180/F404/K42/E161-LP5 (antibody, human IgG1, kappa)
heavy: B1 heavy
light: B1 light
modifications: pAMF at K42 and E161 (printed * in the sequence), linked to LP5; pAMF at Y180 and F404 (printed * in the sequence), linked to LP5
B12: Conjugate 14: D04-Y180/F404/K42/E161-LP12 (antibody, human IgG1, kappa)
heavy: B1 heavy
light: B1 light
modifications: pAMF at K42 and E161 (printed * in the sequence), linked to LP12; pAMF at Y180 and F404 (printed * in the sequence), linked to LP12
B13: Conjugate 30: D04-Y180F404/K42/E161-LP14 (antibody, human IgG1, kappa)
heavy: B1 heavy
light: B1 light
modifications: pAMF at K42 and E161 (printed * in the sequence), linked to LP14; pAMF at Y180 and F404 (printed * in the sequence), linked to LP14
B14: Conjugate 36: D04-Y180F404/K42/E161-LP20 (antibody, human IgG1, kappa)
heavy: B1 heavy
light: B1 light
modifications: pAMF at K42 and E161 (printed * in the sequence), linked to LP20; pAMF at Y180 and F404 (printed * in the sequence), linked to LP20
B15: Conjugate 32: D04-Y180F404/K42/E161-LP16 (antibody, human IgG1, kappa)
heavy: B1 heavy
light: B1 light
modifications: pAMF at K42 and E161 (printed * in the sequence), linked to LP16; pAMF at Y180 and F404 (printed * in the sequence), linked to LP16
B16: Conjugate 34: D04-Y180F404/K42/E161-LP18 (antibody, human IgG1, kappa)
heavy: B1 heavy
light: B1 light
modifications: pAMF at K42 and E161 (printed * in the sequence), linked to LP18; pAMF at Y180 and F404 (printed * in the sequence), linked to LP18
B17: Conjugate 39: D04-Y180F404/K42/E161-LP22 (antibody, human IgG1, kappa)
heavy: B1 heavy
light: B1 light
modifications: pAMF at K42 and E161 (printed * in the sequence), linked to LP22; pAMF at Y180 and F404 (printed * in the sequence), linked to LP22
B18: Conjugate 38: D04-Y180F404/K42/E161-LP23 (antibody, human IgG1, kappa)
heavy: B1 heavy
light: B1 light
modifications: pAMF at K42 and E161 (printed * in the sequence), linked to LP23; pAMF at Y180 and F404 (printed * in the sequence), linked to LP23
B19: Conjugate 40: D04-Y180F404/K42/E161-LP21 (antibody, human IgG1, kappa)
heavy: B1 heavy
light: B1 light
modifications: pAMF at K42 and E161 (printed * in the sequence), linked to LP21; pAMF at Y180 and F404 (printed * in the sequence), linked to LP21
B20: Conjugate 33: D04-Y180F404/K42/E161-LP17 (antibody, human IgG1, kappa)
heavy: B1 heavy
light: B1 light
modifications: pAMF at K42 and E161 (printed * in the sequence), linked to LP17; pAMF at Y180 and F404 (printed * in the sequence), linked to LP17
B21: Conjugate 31: D04-Y180F404/K42/E161-LP15 (antibody, human IgG1, kappa)
heavy: B1 heavy
light: B1 light
modifications: pAMF at K42 and E161 (printed * in the sequence), linked to LP15; pAMF at Y180 and F404 (printed * in the sequence), linked to LP15
B22: Conjugate 35: D04-Y180F404/K42/E161-LP19 (antibody, human IgG1, kappa)
heavy: B1 heavy
light: B1 light
modifications: pAMF at K42 and E161 (printed * in the sequence), linked to LP19; pAMF at Y180 and F404 (printed * in the sequence), linked to LP19

biological target: human ROR1 (hROR1) (human, UniProt Q01973 30-937); assay: cell-based or functional assay

Row | Binder | NTERA-2 cell killing EC50 [nM] | NTERA-2 cell killing Span [%]
1 | B1 | 0.022 | 63
2 | B2 | 0.048 | 94

biological target: T1, ROR1 antigen expressed on ROR1 positive Ntera-2 cells (UniProt Q01973 30-937); assay: cell-based or functional assay

Row | Binder | NTERA-2 cell killing EC50 [nM] | NTERA-2 cell killing Span (%)
3 | B3 | 0.004 | 77
4 | B4 | 0.072 | –
5 | B5 | 0.023 | 58
6 | B6 | > 10 | < 10
7 | B7 | 0.028 | 38
8 | B8 | 0.027 | 94
9 | B9 | > 10 | < 10
10 | B10 | > 10 | < 10
11 | B11 | – | 94
12 | B12 | 0.036 | 56

biological target: T1, ROR1 antigen expressed on ROR1 positive …; assay: cell-based or functional assay; remark: another data set of the same source

Row | Binder | NTERA-2 cell killing EC50 [nM] | NTERA-2 cell killing Span (%)
13 | B3 | 0.019 | 86
14 | B5 | 0.067 | 60

biological target: T1, ROR1 antigen expressed on ROR1 positive …; assay: cell-based or functional assay; remark: another data set of the same source

Row | Binder | NTERA-2 cell killing EC50 [nM] | NTERA-2 cell killing Span (%)
15 | B13 | 0.02 | 88
16 | B3 | 0.013 | 89
17 | B14 | 0.222 | 72
18 | B15 | 0.023 | 86
19 | B5 | 0.05 | 65
20 | B16 | 0.373 | 73
21 | B17 | 0.215 | 54
22 | B18 | 0.108 | 64
23 | B19 | 0.076 | 68
24 | B20 | 0.019 | 87
25 | B21 | 0.018 | 87
26 | B22 | 0.236 | 77

biological target: T1, ROR1 antigen expressed on ROR1 positive …; assay: cell-based or functional assay; remark: another data set of the same source

Row | Binder | NTERA-2 cell killing EC50 [nM] | NTERA-2 cell killing Span (%)
27 | B3 | 0.003 | 96
28 | B8 | 0.119 | 63
